# According to IntAct's records for PubMed 19536131:
# B1: E3 ubiquitin-protein ligase makorin-1 (Homo sapiens), Q9UHC7 (parent)
# chain: MAEAATPGTTATTSGAGAAAATAAAASPTPIPTVTAPSLGAGGGGGGSDGSGGGWTKQVTCRYFMHGVCKEGDNCRYSHDLSDSPYSVVCKYFQRGYCIYGDRCRYEHSKPLKQEEATATELTTKSSLAASSSLSSIVGPLVEMNTGEAESRNSNFATVGAGSEDWVNAIEFVPGQPYCGRTAPSCTEAPLQGSVTKEESEKEQTAVETKKQLCPYAAVGECRYGENCVYLHGDSCDMCGLQVLHPMDAAQRSQHIKSCIEAHEKDMELSFAVQRSKDMVCGICMEVVYEKANPSERRFGILSNCNHTYCLKCIRKWRSAKQFESKIIKSCPECRITSNFVIPSEYWVEEKEEKQKLILKYKEAMSNKACRYFDEGRGSCPFGGNCFYKHAYPDGRREEPQRQKVGTSSRYRAQRRNHFWELIEERENSNPFDNDEEEVVTFELGEMLLMLLAAGGDDELTDSEDEWDLFHDELEDFYDLDL
# Variants of: B1
# Details: with ubc_human UBC
row,Variant,effect of a mutation on the interaction
1,H307E,disrupting interaction
